Reference: publication PMC10699557, “A recombinant approach for stapled peptide discovery yields inhibitors of the RAD51 recombinase” (Chemical Science, 2023)

Target: HumRadA22
Assay: fluorescence polarisation; competition: displacement of a fluorescently-labelled BRC4 repeat from HumRadA22; KD calculated from IC50; single titrations with three technical replicates at each point; mock (linear) samples with 500 uM TCEP

Kd: 39 nM
Binder: VNSSAFSGFCTASGKKLNVSCEALQKAVKLFSDIENIS (modifications not checked) [GB1-SP7-His8, mock-stapled (linear)]
